{
  "source": "paper PMC9927813",
  "about": "“Discovery of DNA aptamers targeting SARS-CoV-2 nucleocapsid protein and protein-binding epitopes for label-free COVID-19 diagnostics”",
  "key": {"[1]": {"molecular_target": "T1, SARS-CoV-2 nucleocapsid (N) protein, wild type (SARS-CoV-2 (wild type), UniProt P0DTC9 1-419)", "assay": "BLI; BLI ([…], DPBS + 0.5 mM MgCl2 + 1 mM CaCl2, pH 7.4; […] (PBST)", "conditions": "protein: commercial; tags: His; chain copies: 2"}, "[2]": {"molecular_target": "T1, SARS-CoV-2 nucleocapsid (N) protein, …", "assay": "BLI; aptamer on streptavidin sensor, PBST; BLI ([…], DPBS + 0.5 mM MgCl2 + 1 mM CaCl2, pH 7.4; […] (PBST)", "conditions": "protein: commercial; tags: His; chain copies: 2"}, "SARS-CoV-2 S1 protein": {"molecular_target": "SARS-CoV-2 S1 protein (SARS-CoV-2, UniProt P0DTC2 13-685)", "assay": "BLI; BLI ([…], DPBS + 0.5 mM MgCl2 + 1 mM CaCl2, pH 7.4; […] (PBST)", "conditions": "protein: commercial"}, "[3]": {"molecular_target": "T1, SARS-CoV-2 nucleocapsid (N) protein, …", "assay": "BLI; N protein on Ni-NTA sensor; BLI ([…], DPBS + 0.5 mM MgCl2 + 1 mM CaCl2, pH 7.4; […] (PBST)", "conditions": "protein: commercial; tags: His; chain copies: 2"}, "[4]": {"molecular_target": "SARS-CoV-2 N protein, in-house (SARS-CoV-2 (wild type), UniProt P0DTC9 1-419)", "assay": "BLI; aptamer on streptavidin sensor, PBST; BLI ([…], DPBS + 0.5 mM MgCl2 + 1 mM CaCl2, pH 7.4; […] (PBST)", "conditions": "protein: recombinant; chain copies: 2"}},
  "data": [
    {"binder": "ATTCATGCGCCAATAGTGGTTTGGAAATGTCTCCCCATACGCATAG (ssDNA)", "note": "[tNSP5]", "values": [
      {"measurement": "Kd", "setting": "[1]", "value": "12.6 ± 2.56", "unit": "nM"}
    ]},
    {"binder": "A48 (ssDNA) DNA: GCTGGATGTCGCTTACGACAATATTCCTTAGGGGCACCGCTACATTGACACATCCAGC", "values": [
      {"measurement": "Kd", "setting": "[1]", "value": "6.46 ± 1.04", "unit": "nM"}
    ]},
    {"binder": "NSP3 (ssDNA) DNA: CTCCTCTGACTGTAACCACGCAGCGTCACGTGTTGTTCCCCATTGTACTGATTCGTCGTGGCATAGGTAGTCCAGAAGCC", "values": [
      {"measurement": "Kd", "setting": "[1]", "value": "8.6 ± 1.06", "unit": "nM"}
    ]},
    {"binder": "NSP2 (ssDNA) DNA: CTCCTCTGACTGTAACCACGTATTGCGTTCCAGTCCCTATGACCAACGTCACAATAAGTCGCATAGGTAGTCCAGAAGCC", "values": [
      {"measurement": "Kd", "setting": "[1]", "value": "4.38 ± 1.21", "unit": "nM"}
    ]},
    {"binder": "NSP1 (ssDNA) DNA: CTCCTCTGACTGTAACCACGGCGCAAGCCGGGGTGTACGTGTTATACGTGCGTGTATCGAGCATAGGTAGTCCAGAAGCC", "values": [
      {"measurement": "Kd", "setting": "[1]", "value": "7.86 ± 1.17", "unit": "nM"}
    ]},
    {"binder": "biotinylated tNSP2 (ssDNA) DNA: CTGACTGTAACCACGTATTGCGTTCCAGTCCCTATGACCAACGTCACAATAAGTCGCATAGGTA", "values": [
      {"measurement": "Kd", "setting": "[2]", "value": "4.51 ± 1.5", "unit": "nM"},
      {"measurement": "binding result", "setting": "SARS-CoV-2 S1 protein", "value": "no binding"}
    ]},
    {"binder": "tNSP2 (ssDNA) DNA: CTGACTGTAACCACGTATTGCGTTCCAGTCCCTATGACCAACGTCACAATAAGTCGCATAGGTA", "values": [
      {"measurement": "Kd", "setting": "[3]", "value": "3.04 ± 1.53", "unit": "nM"}
    ]},
    {"binder": "CTTATGCACCAGGGGCCCGGTTCGGGCAGGCGCAAACACGGCATAGG (ssDNA)", "note": "[tNSP10]", "values": [
      {"measurement": "Kd", "setting": "[1]", "value": "8.6 ± 1.2", "unit": "nM"}
    ]},
    {"binder": "CAGCGTCACGTGTTGTTCCCCATTGTACTGATTCGTCGTGGCAT (ssDNA)", "note": "[biotinylated tNSP3]", "values": [
      {"measurement": "Kd", "setting": "[2]", "value": "2.91 ± 1.02", "unit": "nM"},
      {"measurement": "Kd", "setting": "[4]", "value": "7.52 ± 0.5", "unit": "nM"},
      {"measurement": "binding result", "setting": "SARS-CoV-2 S1 protein", "value": "no binding"}
    ]},
    {"binder": "CAGCGTCACGTGTTGTTCCCCATTGTACTGATTCGTCGTGGCAT (ssDNA)", "note": "[tNSP3]", "values": [
      {"measurement": "Kd", "setting": "[3]", "value": "5.77 ± 1.17", "unit": "nM"}
    ]},
    {"binder": "tNSP12 (ssDNA) DNA: TGTAACCACGTGGTTCGCCCAGTTCCGTTCAATACACTCAACCCTGCACGGCATAGGTA", "values": [
      {"measurement": "Kd", "setting": "[1]", "value": "6.05 ± 2.41", "unit": "nM"}
    ]},
    {"binder": "TAACCACGGCGCAAGCCGGGGTGTACGTGTTATACGTGCGTGTATCGAG (ssDNA)", "note": "[biotinylated tNSP1]", "values": [
      {"measurement": "Kd", "setting": "[2]", "value": "4.83 ± 1.09", "unit": "nM"},
      {"measurement": "binding result", "setting": "SARS-CoV-2 S1 protein", "value": "no binding"}
    ]},
    {"binder": "TAACCACGGCGCAAGCCGGGGTGTACGTGTTATACGTGCGTGTATCGAG (ssDNA)", "note": "[tNSP1]", "values": [
      {"measurement": "Kd", "setting": "[3]", "value": "4.53 ± 0.96", "unit": "nM"}
    ]},
    {"binder": "tNSP9 (ssDNA) DNA: TGTAACCACGTGCTAGATTACGTAACTGGTTGCTACGGGTTTCATCCTCGGCATAGGTA", "values": [
      {"measurement": "Kd", "setting": "[1]", "value": "22.2 ± 1.87", "unit": "nM"}
    ]}
  ]
}
